{"source": "paper doi:10.64898/2026.08.16.745104", "about": "“C. elegans Dicer stacks with the RIG-I-like receptor DRH-1 to cleave dsRNA”", "binders": {"B1": {"name": "3'ovr 106-dsRNA (dsRNA)", "RNA 1": "GGCAAUGAAAGACGGUGAGCUGGUGAUAUGGGAUAGUGUUCACCCUUGUUACACCGUUUUCCAUGAGCAAACUGAAACGUUUUCAUCGCUCUGGAGUGAAUACCAA", "RNA 2": "GGUAUUCACUCCAGAGCGAUGAAAACGUUUCAGUUUGCUCAUGGAAAACGGUGUAACAAGGGUGAACACUAUCCCAUAUCACCAGCUCACCGUCUUUCAUUGCCAA"}}, "molecular_target": "DCR-1;DRH-1;RDE-4 (Caenorhabditis elegans;Caenorhabditis …, UniProt P34529;G5EDI8;G5EBF5 1-1910;1-1037;1-385, ||)", "sequence (P34529 whole entry, chain 1 of 3)": "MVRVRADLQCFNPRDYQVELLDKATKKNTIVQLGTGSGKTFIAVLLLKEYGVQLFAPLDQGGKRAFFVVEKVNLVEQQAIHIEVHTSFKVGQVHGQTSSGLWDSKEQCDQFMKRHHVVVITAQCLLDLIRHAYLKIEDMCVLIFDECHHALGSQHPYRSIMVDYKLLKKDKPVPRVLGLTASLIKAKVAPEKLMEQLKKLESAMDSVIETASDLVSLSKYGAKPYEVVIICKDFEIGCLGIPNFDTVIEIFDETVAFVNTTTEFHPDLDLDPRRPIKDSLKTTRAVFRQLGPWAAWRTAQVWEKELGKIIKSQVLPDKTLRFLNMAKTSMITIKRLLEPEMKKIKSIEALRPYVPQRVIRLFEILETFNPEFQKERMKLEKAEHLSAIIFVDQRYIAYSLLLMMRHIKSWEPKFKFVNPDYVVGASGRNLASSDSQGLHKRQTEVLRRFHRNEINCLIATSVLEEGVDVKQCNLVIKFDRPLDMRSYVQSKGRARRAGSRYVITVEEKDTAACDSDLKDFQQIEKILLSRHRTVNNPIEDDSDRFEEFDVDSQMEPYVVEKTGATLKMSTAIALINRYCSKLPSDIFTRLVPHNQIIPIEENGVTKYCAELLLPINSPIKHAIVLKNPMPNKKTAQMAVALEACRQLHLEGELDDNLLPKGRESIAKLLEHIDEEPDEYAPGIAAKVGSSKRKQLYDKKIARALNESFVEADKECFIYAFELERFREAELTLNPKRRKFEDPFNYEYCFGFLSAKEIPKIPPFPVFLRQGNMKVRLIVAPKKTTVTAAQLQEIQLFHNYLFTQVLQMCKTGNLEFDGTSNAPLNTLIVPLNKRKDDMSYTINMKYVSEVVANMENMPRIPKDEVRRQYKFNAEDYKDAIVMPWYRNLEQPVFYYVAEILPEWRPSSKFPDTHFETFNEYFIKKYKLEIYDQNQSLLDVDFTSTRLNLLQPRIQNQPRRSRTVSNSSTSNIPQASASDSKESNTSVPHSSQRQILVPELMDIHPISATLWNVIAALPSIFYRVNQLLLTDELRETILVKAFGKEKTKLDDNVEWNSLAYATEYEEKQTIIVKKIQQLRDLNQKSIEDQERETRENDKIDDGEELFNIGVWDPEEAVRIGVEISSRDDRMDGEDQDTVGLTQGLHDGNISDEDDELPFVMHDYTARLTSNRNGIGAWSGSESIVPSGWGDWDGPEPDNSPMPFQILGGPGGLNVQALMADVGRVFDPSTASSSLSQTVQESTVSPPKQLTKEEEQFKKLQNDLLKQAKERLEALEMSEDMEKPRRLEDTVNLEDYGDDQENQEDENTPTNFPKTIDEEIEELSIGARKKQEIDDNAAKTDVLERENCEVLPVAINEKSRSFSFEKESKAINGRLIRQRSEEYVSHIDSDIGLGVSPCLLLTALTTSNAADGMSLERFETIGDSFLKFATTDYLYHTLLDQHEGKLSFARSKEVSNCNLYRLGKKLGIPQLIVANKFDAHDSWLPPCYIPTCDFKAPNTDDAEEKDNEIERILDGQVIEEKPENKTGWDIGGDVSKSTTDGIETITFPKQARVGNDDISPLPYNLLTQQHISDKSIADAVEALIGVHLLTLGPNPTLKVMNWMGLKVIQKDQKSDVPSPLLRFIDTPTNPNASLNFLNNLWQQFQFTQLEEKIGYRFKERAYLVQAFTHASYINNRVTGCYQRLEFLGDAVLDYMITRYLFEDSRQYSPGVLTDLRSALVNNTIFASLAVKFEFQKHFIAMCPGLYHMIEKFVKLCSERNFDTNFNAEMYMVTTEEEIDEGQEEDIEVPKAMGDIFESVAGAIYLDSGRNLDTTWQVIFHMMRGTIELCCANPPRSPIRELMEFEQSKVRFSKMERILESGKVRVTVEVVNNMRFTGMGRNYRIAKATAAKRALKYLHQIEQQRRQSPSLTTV", "sequence (chain, as listed by the source ||, chain 2 of 3)": "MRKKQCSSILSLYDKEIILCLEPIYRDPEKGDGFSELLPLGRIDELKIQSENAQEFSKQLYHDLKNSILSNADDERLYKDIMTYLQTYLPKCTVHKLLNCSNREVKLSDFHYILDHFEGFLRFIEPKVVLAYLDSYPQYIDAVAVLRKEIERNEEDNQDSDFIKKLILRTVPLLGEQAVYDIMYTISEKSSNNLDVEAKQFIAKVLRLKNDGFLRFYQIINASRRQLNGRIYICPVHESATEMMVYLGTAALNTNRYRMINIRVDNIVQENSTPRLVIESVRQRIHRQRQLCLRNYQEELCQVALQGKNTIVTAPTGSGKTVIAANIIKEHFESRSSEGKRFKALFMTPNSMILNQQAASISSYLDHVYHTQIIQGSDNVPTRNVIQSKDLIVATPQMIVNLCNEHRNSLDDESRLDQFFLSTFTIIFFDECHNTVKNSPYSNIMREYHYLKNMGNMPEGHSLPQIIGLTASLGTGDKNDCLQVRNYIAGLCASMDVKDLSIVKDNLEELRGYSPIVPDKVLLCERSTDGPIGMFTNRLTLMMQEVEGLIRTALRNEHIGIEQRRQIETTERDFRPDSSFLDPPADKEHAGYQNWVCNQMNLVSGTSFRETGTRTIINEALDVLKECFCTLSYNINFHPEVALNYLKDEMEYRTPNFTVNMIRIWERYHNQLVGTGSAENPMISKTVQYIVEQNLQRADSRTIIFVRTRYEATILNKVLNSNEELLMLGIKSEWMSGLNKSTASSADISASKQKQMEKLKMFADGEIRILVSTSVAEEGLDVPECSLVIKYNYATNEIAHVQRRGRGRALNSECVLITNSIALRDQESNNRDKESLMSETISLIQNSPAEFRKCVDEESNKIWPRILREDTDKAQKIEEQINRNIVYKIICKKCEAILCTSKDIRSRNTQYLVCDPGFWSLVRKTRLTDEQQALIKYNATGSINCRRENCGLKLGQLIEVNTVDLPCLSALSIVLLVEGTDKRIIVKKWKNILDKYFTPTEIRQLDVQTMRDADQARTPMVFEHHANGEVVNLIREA", "sequence (chain, as listed by the source ||, chain 3 of 3)": "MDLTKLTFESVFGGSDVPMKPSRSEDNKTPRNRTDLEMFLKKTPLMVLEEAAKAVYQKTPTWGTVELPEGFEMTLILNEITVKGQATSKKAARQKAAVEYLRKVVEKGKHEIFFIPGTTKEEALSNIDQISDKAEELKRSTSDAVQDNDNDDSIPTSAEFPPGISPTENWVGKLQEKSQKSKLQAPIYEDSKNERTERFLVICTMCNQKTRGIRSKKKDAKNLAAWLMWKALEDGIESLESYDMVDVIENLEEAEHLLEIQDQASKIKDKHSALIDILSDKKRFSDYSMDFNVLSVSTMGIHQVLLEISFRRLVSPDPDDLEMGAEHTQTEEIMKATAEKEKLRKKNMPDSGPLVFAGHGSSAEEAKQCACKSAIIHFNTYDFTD", "assay": "cryo-EM structure, 3.0 A; 5 mM ATP, 20 C; ADP modelled in DCR-1, DRH-1 and DRH-1*; Mg2+; cleavage-competent state, poised for second cleavage; RDE-4 dsRBM2 density not seen; Cryo-EM; sample buffer not given in material. Lysis/resuspension buffer 25 mM HEPES pH 7.5, 10 mM KOAc, 2 mM Mg(OAc)2, 100 mM KCl, 1 mM TCEP, 5% glycerol; RNA annealed in 50 mM Tris pH 8.0, 20 mM KCl; ATP sample incubated at 20 C", "settings": "protein: recombinant;recombinant;recombinant; (StrepTrap purification); copies: 1;1;1; 2 nt 3' overhangs at both termini", "data": [{"binder": "B1", "values": [{"measurement": "binding result", "value": "binds"}]}]}
